Source: article PMC5441855

System: CC(C)=CCC/C(C)=C/CC/C(C)=C/CC/C(C)=C/COP(=O)(O)OP(=O)(O)O
Assay: purified protein
Settings: 50 mM HEPES pH 7.0, 100 mM KCl, 0.1 mM MgCl2, 10% glycerol, 30 °C, 1-25 µM GGPP, 30 s, product (-)-kolavenyl diphosphate

Substance SdKPS (Tr-SdKPS) (Salvia divinorum) has a Km of 1.9 ± 0.66 µM and a kcat of 0.88 ± 0.11 s⁻¹.
